# Laboratory results reported in the supplement of paper PMC7125110.
# ± gives the standard error. Fewer inactive variants are shown than the library holds.
# B1: glmS ribozyme (parent)
# chain: AUAAAAGCGCCAGAACUACAGAAAUGUAGUUGACGAGGAGGAGGUUUAUCGAAUUUUCGGCGGAUGCCUCCAAA
# Variants of: B1
# Assay: self-cleavage kobs at 10000 uM GlcN6P; higher = faster cleavage; RNA array
# Conditions: with glucosamine-6-phosphate
# Outline: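 Sequenced MiSeq chips were the platform: E. coli RNA polymerase transcribed barcoded ribozyme variants on them in situ, and a hybridised Cy3 probe tracked these at 37 °C. After glucosamine-6-phosphate (40 μM to 10 mM) in HEPES/KCl/Mg(OAc)2 buffer was flowed in, tiles were imaged over ~14 h. Signals normalised to baseline and to non-cleaving reference variants were reduced to per-tile medians and fit to one- or two-exponential decays to obtain kobs. kcat and KM were derived through weighted Michaelis–Menten fits across concentrations.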
row,Variant,self-cleavage kobs at 10000 uM GlcN6P [s⁻¹]
1,AUAAAAGCGCCAGAACUACAGAAAUGUAGUUAACGAGGUGGAGGUUUAUCGAAUUUUCGGCGGAUGCUUCCAAA,0.000655 ± 0.00014
2,AUAAAAGCGCCAGAACUACAGAAAUGUAGGUGACGAGGUGGAGGUUUAUCGAAUUUUCGGCGGAUGCCUACAAA,7.17e-05 ± 1.8e-05
3,AUAAAAGCGCCAGAACUACAGAAAUGUAGUAGUCUAGUAGGAGGUUUAUCGAAUUUUCGGCGGAUGCCUCCAAA,< 1e-05
4,AUAAAAGCGCCAGAACUACAGAAAUGUAGUCGACGAGGAGGAGGUUUAUCGAAUUUUUGGCGCAUGCCUCCAAA,< 1e-05
5,AUAAAAGCGCCAGAACUACAGAAAUGUAGUUUACGAGGAGGAGGUUGAUCGAAUUUUCGGCGGAUGCCUGCAAA,0.00012 ± 3.4e-05
6,AUAAAAGCGCCAGAACUACAGAAAUGUAGUUUACGAUGAGGAAGUUUAUCGGAUUUUCGGCGGAUGUCUCCAAA,< 1e-05
7,AUAAAAGCGCCAGAACUACAGAAAUGUACUUGACGAGGAGGAGAUUCAGCGAAUUUGCGCCGGAUGCUUGCAAA,< 1e-05
8,AUAAAAGCGCCAGAACUACAGAAAUGUAUUUGACGAGGAGGAGGUGUAUCGAAUUUUCGGGGGAUACCUCCAAA,< 1e-05
9,AUAAAAGCGCCAGAACUACAGAAAUGUAGUUAACGAGGAGGAGGUUUAUCGAAUUAUCGGCGGAUGGCUCCAAA,0.000139 ± 2e-05
10,AUAAAAGCGCCAGAACUACAGAAAUGUAGGUGACGAGGAGUAAGUUUCUCGAAUUUUCGGCGGAUGCCUCUAAA,< 1e-05
11,AUAAAAGCGCCAGAACUACAGAAAUGUAGAUGAGGAGGAGGAUGUUUAUCGAAUUUUCGGUGUAUGCCUCCAAA,< 1e-05
12,AUAAAAGCGCCAGAACUACAGAAAUGUAGUUAACGAGGAUGAGGUUUAUCGAAUUUUCGGCGGAUGUCUCCAAA,< 1e-05
13,AUAAAAGCGCCAGAACUACAGAAAUGUAGCUGACCAGGAGUAGGUUUAUCGAAUUUUCGGCGGAUGCCUCAAAA,< 1e-05
14,AUAAAAGCGCCAGAACUACAGAAAUGUAGUGGACGAGAAGGAGGUUUAUCGACUUUUCGGCGGACGCCUCCAAA,< 1e-05
15,AUAAAAGCGCCAGAACUACAGAAAUGUAGUCGACGAGGAGGCGGUUUAUCGAAUUUUCGGCGGGUGCCUCCAAA,< 1e-05
16,AUAAAAGCGCCAGAACUACAGAAAUGUAGUAGACGAGGAGUUGGUUUAUCGAAUUUUCGGCAGAUGCCUCCAAA,< 1e-05
17,AUAAAAGCGCCAGAACUACAGAAAUGUAGUAGACGAGGAGGAGGUGUAUCGAAUUGUCGGCGGAUGCCUCCAAA,0.00127 ± 0.00022
18,AUAAAAGCGCCAGAACUACAGAAAUGUAGGUGACGAGGAGGAGGUUUAGCGAAUUUUCGGCGCAUGCCUCCAAA,< 1e-05
19,AUAAAAGCGCCAGAACUACAGAAAUGUAGUUCACGAGGAGGAGGUUUAUCGAAUUUUCGGCGGAUACCUCCAAA,7.35e-05 ± 1.4e-05

row,Variant,self-cleavage kobs at 10000 uM GlcN6P [s⁻¹]
1,AUAAAAGCGCCAGAACUACAGAAAUGUACUUAACGAGGAGGAGGUUUAUCGAAAUUUCGGCGGAUGCCUCCAAA,0.000923 ± 0.00011
2,AUAAAAGCGCCAGAACUACAGAAAUGUAGCUGACGAGGAGGAGGUUUAUCAAAUUUUCGGCGGAUGGCUCCAAA,< 1e-05
3,AUAAAAGCGCCAGAACUACAGAAAUGUAGGUGACGAGGAGGGGGUUUAUCGAAUUUUCGGCUGAUGCCUCCAAA,< 1e-05
4,AUAAAAGCGCCAGAACUACAGAAAUGUAGUUAACGAGGAGGAGGUUUAUCGAACUCUAGGCGGAUGCCUCCAAA,9.78e-05 ± 2.1e-05
5,AUAAAAGCGCCAGAACUACAGAAAUGUAGGUGACGAGGAGGAGGUCUAUCUAAUUUUCGGCGGAUGCCUCUAAA,< 1e-05
6,AUAAAAGCGCCAGAACUACAGAAAUGUAAUUGACGAGGAGGAGGUUUAGCGAAUUGUCGGCGGAUGCCUCCAAA,3.31e-05 ± 1.3e-05
7,AUAAAAGCGCCAGAACUACAGAAAUGUAGUUAACGAGGAGGAGGUUUAUCGAAUCUUCGUUGGAUGCCUCCAAA,< 1e-05
8,AUAAAAGCGCCAGAACUACAGAAAUGUAGCUGACGGGGAGGAGGUUUAUCGAAAUUUCGGCGGAUGCCUCCAAA,< 1e-05
9,AUAAAAGCGCCAGAACUACAGAAAUGUAGUCGACGAGGACGAGGUUUAUCGAGUUUUCGGCGGAUGCCUCCAAA,0.000261 ± 9.7e-05
10,AUAAAAGCGCCAGAACUACAGAAAUGUAAUAGACGAGGAGGAGGGUUAUCGAAUUUUCGGCGGAUGCCUCCAAA,0.000217 ± 4.5e-05
11,AUAAAAGCGCCAGAACUACAGAAAUGUAGUCGACGAGGAGGAGGUUUCUCGAAUUUUCGGCGGAUGCCUCCAAA,3.72e-05 ± 7.7e-06
12,AUAAAAGCGCCAGAACUACAGAAAUGUAACUGACGAGGAGGAGGUUUAUCGAAUUUUCGACGGAUGCCUCCAAA,< 1e-05
13,AUAAAAGCGCCAGAACUACAGAAAUGUAGUCGACGAGGAGGAGGUUUAUCGAAUUUUCGGCGGAUCCCUCCAAA,8.11e-05 ± 1.3e-05
14,AUAAAAGCGCCAGAACUACAGAAAUGUAGCUAACGAGGAGGAGGUUUAUCGAAUUUUCGGCGGAUACCUCCAAA,0.001 ± 0.00026
15,AUAAAAGCGCCAGAACUACAGAAAUGUAGUGGUCGAGGAGGAGGUUUAUCGAGUUUUCGGCGGAUGCCUCCAAA,2.81e-05 ± 1.3e-05
16,AUAAAAGCGCCAGAACUACAGAAAUGUAGUGGACGAGGAGGAGGUUUAUCGAAUUUUUGGCGGAUGCCUCCAAA,9.69e-05 ± 1.1e-05
17,AUAAAAGCGCCAGAACUACAGAAAUGUAGAUUACGAGGAGGAGGUUUAUCGAAUUUUCGGCGGAUGACUCCAAA,0.000213 ± 6e-05
18,AUAAAAGCGCCAGAACUACAGAAAUGUAAUUGACGAGGAUGAGGUUUAUCGAAUUUUCGGCGGAUGCGUCCAAA,< 1e-05
